Patent US20060198851A1

Key:
[1] = biological target: soluble Aβ1-42, [125I]Aβ1-42 (human) (UniProt P05067); test: capture radioimmunoassay, 50,000 CPM of 125I-Aβ 1-42 (or 125I-Aβ 1-40)
[2] = biological target: synthetic Aβ1-42 (aggregated in the ELISAs) (human) (UniProt P05067); test: ELISA on aggregated synthetic Aβ1-42; given as ED50

Row | % of radioactive counts bound at 10 µg/ml [1] | EC50 [2] | Substance
1 | 2% | 0.053 nM | monoclonal antibody 10D5 (IgG1)
2 | 7% | 0.667 nM | monoclonal antibody 12B4 (IgG2a)
